Patent US20130129707A1, “ANTIMICROBIAL ACTIVITY ENHANCING AGENT” (priority 2010, published 2013)

What was measured:
Format in all cases: cell-based
[1] = tested on: Escherichia coli K-12 strain (NBRC 3301); assay: Antimicrobial activity enhancement test (colony count, CFU); details: culture 17 hours
Procedure: In the antimicrobial activity enhancement test, antimicrobial activity of a sample obtained by mixing the antimicrobial activity enhancing agent of the present invention with lactoferrin or a lactoferrin hydrolysate was measured. As a control, antimicrobial activity of a sample containing only lactoferrin or a lactoferrin hydrolysate was also measured.
By using 1% Bacto peptone medium, Escherichia coli K-12 strain was inoculated into the medium contained in a polystyrene tube with a 5 ml capacity, and precultured in an incubator at 37° C. for 6 hours to obtain a cell suspension for the test. The precultured Escherichia coli was added to a 96-well plate at a cell density of 10^6 cells/mL together with each of the aforementioned samples, and cultured at 37° C. for a predetermined time. After the culture for the predetermined time, the culture medium containing Escherichia coli was serially diluted with 0.85% physiological saline, and plated on an agar medium, and culture was performed at 37° C. for a predetermined time. Then, number of colonies (colony forming units:CFU) was measured.
Antimicrobial activity of each sample was evaluated on the basis of the value of CFU. Degree of enhancement of the antimicrobial activity was calculated by comparison of the numbers of Escherichia coli (CFU) that remained after the test. For example, if CFU of Sample 1 is 100, and CFU of Sample 2 is 10 after the test, the antimicrobial activity of Sample 2 can be determined to be 10 times that of Sample 1. […]
By using 1% Bacto peptone medium (Becton Dickinson), the Escherichia coli K-12 strain (NBRC 3301) was inoculated to the medium contained in a polystyrene tube with a 5 ml capacity at a density of 10^6 CFU/mL, and precultured in an incubator at 37° C. for 6 hours to obtain a cell suspension for the test.
The cell suspension for the test was added to a 96-well plate at a cell density of 10^6 CFU/mL together with each of the aforementioned samples, and culture was performed at 37° C. for 17 hours.
After the culture for 17 hours, the culture medium containing Escherichia coli was serially diluted with 0.85% physiological saline, and plated on an agar medium (Rapid Media RM-SPC, Morinaga Milk Industry), and then culture was performed at 37° C. for 16 hours. Then, number of the formed colonies (CFU: Colony Forming Unit) was measured to evaluate the antimicrobial activity of each sample.

[2] = tested on: Candida albicans TIMM1768; assay: Minimum inhibitory concentration (MIC), absorbance at 630 nm; details: Test Example 6; MIC as lactoferrin concentration; Sabouraud medium; 17 hours, 37° C.
Procedure: (§1) In a similar manner, by using the PYG medium (1% Bacto peptone, 0.05% yeast extract (Becton Dickinson), 1% glucose (Wako Pure Chemical Industries)), Streptococcus mutans JCM 5705T was inoculated to the medium contained in a polystyrene tube with a 5 ml capacity at a density of 10^6 cells/mL, and precultured in an incubator at 37° C. for 6 hours to obtain a cell suspension for the test. Further, by using the Sabouraud medium (1% Bacto peptone, 2% glucose), Candida albicans TIMM1768 was inoculated to the medium contained in a polystyrene tube with a 5 ml capacity at a density of 10^6 cells/mL, and precultured in an incubator at 37° C. for 6 hours to obtain a cell suspension for the test.
(§2) Each of the cell suspensions for the test was added to a 96-well plate at a cell density of 10^6 cells/mL together with each of the aforementioned samples, and culture was performed at 37° C. for 17 hours.
(§3) After the culture for 17 hours, absorbance of the medium was measured at 630 nm using a microplate reader (Corona Electric). In addition, each bacterium was cultured only with the medium as a control, besides the culture using Samples 16 to 30. […]
(§4) After the culture for 17 hours, absorbance of the medium was measured at 630 nm using a microplate reader (Corona Electric). […]

[3] = tested on: Streptococcus mutans JCM 5705T; assay: as above; details: Test Example 6; MIC as lactoferrin concentration; PYG medium; 17 hours, 37° C.
Procedure: as §1, §2, §3, §4

[4] = tested on: Staphylococcus epidermidis JCM 2414T; assay: as above; details: Test Example 6; MIC as lactoferrin concentration; 17 hours, 37° C.
Procedure: (§5) By using 1% Bacto peptone medium (Becton Dickinson), each of Escherichia coli 0111, Cronobacter sakazaki ATCC 12868, Salmonella enteritidis IID 604, Klebsiella pneumoniae JCM 1662T, Pseudomonas aeruginosa MMI 603, Staphylococcus aureus JCM 2151 and Staphylococcus epidermidis JCM 2414T was inoculated to the medium contained in a polystyrene tube with a 5 ml capacity at a density of 10^6 cells/mL, and precultured in an incubator at 37° C. for 6 hours to obtain a cell suspension for the test.
as §2
(§6) After the culture for 17 hours, absorbance of the medium was measured at 630 nm using a microplate reader (Corona Electric). In addition, each bacterium was cultured only with the medium as a control, besides the culture using Samples 16 to 30.

[5] = tested on: Salmonella enteritidis IID 604; assay: as above; details: Test Example 6; MIC as lactoferrin concentration; 17 hours, 37° C.
Procedure: as §5, §2, §6

[6] = tested on: Staphylococcus aureus JCM 2151; assay: as above; details: Test Example 6; MIC as lactoferrin concentration; 17 hours, 37° C.
Procedure: as §5, §2, §6
as §1, with “By using 1% Bacto peptone medium (Becton Dickinson), each of Escherichia coli 0111, Cronobacter sakazaki ATCC 12868, Klebsiella pneumoniae JCM 1662T, Pseudomonas aeruginosa MMI 603, and Staphylococcus aureus JCM 2151 was inoculated to the medium contained in a polystyrene tube with a 5 ml capacity at a density of 10^6 cells/mL, and precultured in an incubator at 37° C. for 6 hours to obtain a cell suspension for the test. In a” for “In a”
(§7) After the culture for 17 hours, absorbance of the medium was measured at 630 nm using a microplate reader (Corona Electric). In addition, each bacterium was cultured only with the medium as a control, besides the culture using Samples 31 to 41.

[7] = tested on: Klebsiella pneumoniae JCM 1662T; assay: as above; details: Test Example 6; MIC as lactoferrin concentration; 17 hours, 37° C.
Procedure: as §5, §2, §6
as §1, with “By using 1% Bacto peptone medium (Becton Dickinson), each of Escherichia coli 0111, Cronobacter sakazaki ATCC 12868, Klebsiella pneumoniae JCM 1662T, Pseudomonas aeruginosa MMI 603, and Staphylococcus aureus JCM 2151 was inoculated to the medium contained in a polystyrene tube with a 5 ml capacity at a density of 10^6 cells/mL, and precultured in an incubator at 37° C. for 6 hours to obtain a cell suspension for the test. In a” for “In a”
as §7

[8] = tested on: Cronobacter sakazaki ATCC 12868; assay: as above; details: Test Example 6; MIC as lactoferrin concentration; 17 hours, 37° C.
Procedure: as §5, §2, §6
as §1, with “By using 1% Bacto peptone medium (Becton Dickinson), each of Escherichia coli 0111, Cronobacter sakazaki ATCC 12868, Klebsiella pneumoniae JCM 1662T, Pseudomonas aeruginosa MMI 603, and Staphylococcus aureus JCM 2151 was inoculated to the medium contained in a polystyrene tube with a 5 ml capacity at a density of 10^6 cells/mL, and precultured in an incubator at 37° C. for 6 hours to obtain a cell suspension for the test. In a” for “In a”
as §7

[9] = tested on: Escherichia coli O111; assay: as above; details: Test Example 6; MIC as lactoferrin concentration; 17 hours, 37° C.
Procedure: as §5, §2, §6
as §1, with “By using 1% Bacto peptone medium (Becton Dickinson), each of Escherichia coli 0111, Cronobacter sakazaki ATCC 12868, Klebsiella pneumoniae JCM 1662T, Pseudomonas aeruginosa MMI 603, and Staphylococcus aureus JCM 2151 was inoculated to the medium contained in a polystyrene tube with a 5 ml capacity at a density of 10^6 cells/mL, and precultured in an incubator at 37° C. for 6 hours to obtain a cell suspension for the test. In a” for “In a”
as §7

[10] = tested on: Pseudomonas aeruginosa MMI 603; assay: as above; details: Test Example 6; MIC as lactoferrin concentration; 17 hours, 37° C.
Procedure: as §5, §2, §6
as §1, with “By using 1% Bacto peptone medium (Becton Dickinson), each of Escherichia coli 0111, Cronobacter sakazaki ATCC 12868, Klebsiella pneumoniae JCM 1662T, Pseudomonas aeruginosa MMI 603, and Staphylococcus aureus JCM 2151 was inoculated to the medium contained in a polystyrene tube with a 5 ml capacity at a density of 10^6 cells/mL, and precultured in an incubator at 37° C. for 6 hours to obtain a cell suspension for the test. In a” for “In a”
as §7

Molecule | Change of Log10 CFU relative to control ([1]; Test Example 5) | Survival rate based on control ([1]; Test Example 5) [%] | antimicrobial activity (in words) ([1]; Test Example 5) | MIC [2] [µg/mL] | MIC [3] [µg/mL] | MIC [4] [µg/mL] | MIC [5] [µg/mL] | Change of Log10 CFU relative to control ([1]; Test Example 2) | Survival rate based on control ([1]; Test Example 2) [%] | MIC [6] [µg/mL] | MIC [7] [µg/mL] | MIC [8] [µg/mL] | MIC [9] [µg/mL] | MIC [10] [µg/mL]
Sample 14: Angiogenin-1 (32 μg/mL), bovine, about 15 kDa, separated by gel filtration HPLC in Example 5 (SEQ ID NO: 4) (protein, listed as Bos taurus) AQDDYRYIHFLTQHYDAKPKGRNDEYCFNMMKNRRLTRPCKDRNTFIHGNKNDIKAICEDRNGQPYRGDLRISKSEFQITICKHKGGSSRPPCRYGATEDSRVIVVGCENGLPVHFDESFITPRH | 0.160 | 144.654 | do not have antimicrobial activity |  |  |  |  |  |  |  |  |  |  | 
angiogenin-2: bovine angiogenin-2, about 17 kDa component of peak α in Example 5 (SEQ ID NO: 7) (protein, listed as Bos taurus) QNDAYRGFLRKHYDPSPTGHDDRYCNTMMERRNMTRPCKDTNTFIHGNSDDIRAVCDDRNGEPYRNGLRRSRSPFQVTTCRHRGGSPRPPCRYRAFRANRVIVIRCRDGFPIHLEENFIPPRP |  |  | do not have antimicrobial activity |  |  |  |  |  |  |  |  |  |  | 
LF: bovine lactoferrin (Morinaga Milk Industry) diluted with deionized water; 2 mg/mL in Samples 1 and 11 (protein, UniProt P24627 20-708, looked up) Lactotransferrin: APRKNVRWCTISQPEWFKCRRWQWRMKKLGAPSITCVRRAFALECIRAIAEKKADAVTLDGGMVFEAGRDPYKLRPVAAEIYGTKESPQTHYYAVAVVKKGSNFQLDQLQGRKSCHTGLGRSAGWIIPMGILRPYLSWTESLEPLQGAVAKFFSASCVPCIDRQAYPNLCQLCKGEGENQCACSSREPYFGYSGAFKCLQDGAGDVAFVKETTVFENLPEKADRDQYELLCLNNSRAPVDAFKECHLAQVPSHAVVARSVDGKEDLIWKLLSKAQEKFGKNKSRSFQLFGSPPGQRDLLFKDSALGFLRIPSKVDSALYLGSRYLTTLKNLRETAEEVKARYTRVVWCAVGPEEQKKCQQWSQQSGQNVTCATASTTDDCIVLVLKGEADALNLDGGYIYTAGKCGLVPVLAENRKSSKHSSLDCVLRPTEGYLAVAVVKKANEGLTWNSLKDKKSCHTAVDRTAGWNIPMGLIVNQTGSCAFDEFFSQSCAPGADPKSRLCALCAGDDQGLDKCVPNSKEKYYGYTGAFRCLAEDVGDVAFVKNDTVWENTNGESTADWAKNLNREDFRLLCLDGTRKPVTEAQSCHLAVAPNHAVVSRSDRAAHVKQVLLHQQALFGKNGKNCPDKFCLFKSETKNLLFNDNTECLAKLGGRPTYEEYLGTEYVTAIANLKKCSTSPLLEACAFLTR | −2.657 | 0.220 |  | 1000 | >8000 | 1000 | 4000 | −2.472 | 0.337 | 500 | 8000 | 8000 | 2000 | 8000
